In US20210283212A1 (RA PHARMACEUTICALS, published 2021):
Starred links: 1 amine or outer side, 2 acyl side, 3 side chain; linkers in the order of their positions; H or OH if unused. Positions of bridges follow the written chain, without caps; N, C: chain ends. Non-standard residues stand in square brackets, D forms with d. Primed or numbered codes have the meaning given here. *: point of attachment. mXylyl(3) = bridging moiety between the two residues given in brackets; mXylyl″ = bridging moiety between the two marked residues; Trp(7-aza) = N[C@@H](Cc1c[nH]c2ncccc12)C(=O)O; Phe(3-Cl) = N[C@@H](Cc1cccc(Cl)c1)C(=O)O; Tiq1c(1S) = O=C(O)[C@H]1NCCc2ccccc21; pXylylene = c1cc(C[*:2])ccc1C[*:1]; dPhg = N[C@@H](C(=O)O)c1ccccc1; Phg = N[C@H](C(=O)O)c1ccccc1; Tle = CC(C)(C)[C@H](N)C(=O)O; NMeS = CN[C@@H](CO)C(=O)O; hCys = N[C@@H](CCS)C(=O)O; Heptanoyl = CCCCCCC(=O)*; Nle = CCCC[C@H](N)C(=O)O; Pra = C#CC[C@H](N)C(=O)O; Nva = CCC[C@H](N)C(=O)O; Sar = CNCC(=O)O

B1: R3142 (peptide)
peptide: Ac-CVERFCDVY[Trp(7-aza)]EYP-NH2
modifications: linker 1-6 via mXylyl(3)
B2: R3137 (peptide)
peptide: Heptanoyl-C[dPhg]T[Trp(7-aza)]EY[NMeS]AC[Nva]-NH2
modifications: linker 1-9 via mXylyl(3)
B3: R3143 (peptide)
peptide: CVERFCDGYWEYP
modifications: [mXylyl(1,6)]Ac-C-V-E-R-F-C-D-Tbg-Y-W-E-Y-P-NH2
B4: R3101 (peptide)
peptide: VCGTWEYSHGCV
modifications: not fully specified; [mXylyl(2,10)]Ac-Nvl-C-Phg-T-azaTrp-E-Y-(N-Me)S-H-G-C-Nvl-NH2
B5: R3010 (peptide)
peptide: Ac-[Nva]CYE[Sar][Tle]Y[Trp(7-aza)]E[Nva][Nva]PC-NH2
modifications: linker 2-13 via mXylyl″
B6: R3133 (peptide)
peptide: Ac-[Nva]C[Phg][dA][Trp(7-aza)]EY[NMeS]HC[Nva]-NH2
modifications: linker 2-10 via mXylyl(3)
B7: R3112 (peptide)
peptide: Ac-[Nle]C[Phg]T[Trp(7-aza)]EY[NMeS]HC[Nva]-NH2
modifications: linker 2-10 via mXylyl(3)
B8: R3013 (peptide)
peptide: Ac-[Nva]C[Phg]T[Trp(7-aza)]EY[NMeS]HC-NH2
modifications: linker 2-10 via mXylyl″
B9: R3135 (peptide)
peptide: Ac-[Nva]C[Phg]T[Trp(7-aza)]EY[NMeS][dA]C[Nva]-NH2
modifications: linker 2-10 via mXylyl(3)
B10: R3009 (peptide)
peptide: Ac-[Nva]CYE[Sar][Tle]Y[Trp(7-aza)]EC[Nva]P[Nva]-NH2
modifications: linker 2-10 via mXylyl″
B11: R3151 (peptide)
peptide: Ac-CVARFCD[Tle]Y[Trp(7-aza)]EYP[dPhg][Nva]-NH2
modifications: linker 1-6 via mXylyl(3)
B12: R3148 (peptide)
peptide: Ac-CAERFCD[Tle]YWEYP[Phg][Nva]-NH2
modifications: linker 1-6 via mXylyl(3)
B13: R3141 (peptide)
peptide: Ac-CVERFCDVYWEFP-NH2
modifications: linker 1-6 via mXylyl(3)
B14: R3134 (peptide)
peptide: Ac-[Nva]C[Phg]T[Trp(7-aza)]E[Phe(3-Cl)][NMeS]AC[Nva]-NH2
modifications: linker 2-10 via mXylyl(3)
B15: R3012 (peptide)
peptide: Ac-[Nva]C[Phg]T[Trp(7-aza)]EY[NMeS]HC[Nva]-NH2
modifications: linker 2-10 via mXylyl″
B16: R3104 (peptide)
peptide: Ac-[Nva][hCys][Phg]T[Trp(7-aza)]EY[NMeS]HC[Nva]-NH2
modifications: linker 2-10 via pXylylene
SMILES: CCC[C@H](NC(=O)[C@@H]1CSCc2ccc(cc2)CSCC[C@H](NC(=O)[C@H](CCC)NC(C)=O)C(=O)N[C@@H](c2ccccc2)C(=O)N[C@@H]([C@@H](C)O)C(=O)N[C@@H](Cc2c[nH]c3ncccc23)C(=O)N[C@@H](CCC(=O)O)C(=O)N[C@@H](Cc2ccc(O)cc2)C(=O)N(C)[C@@H](CO)C(=O)N[C@@H](Cc2c[nH]cn2)C(=O)N1)C(N)=O
B17: R3126 (peptide)
peptide: Ac-[Nva]CYNN[Tle]E[Trp(7-aza)]ECP[Phg][Tle]-NH2
modifications: cysteine pairing not given here
B18: R3107 (peptide)
peptide: Ac-[Nva][hCys][Phg]T[Trp(7-aza)]EY[NMeS]H[hCys][Nva]-NH2
modifications: linker 2-10 via mXylyl(3)
B19: R3149 (peptide)
peptide: Ac-CAERFCD[Tle]YWEYP[dPhg][Nva]-NH2
modifications: linker 1-6 via mXylyl(3)
B20: R3122 (peptide)
peptide: Ac-[Nva]C[Tiq1c(1S)]T[Trp(7-aza)]EY[NMeS]HC[Nva]-NH2
modifications: linker 2-10 via mXylyl(3)
B21: R3105 (peptide)
peptide: Ac-[Nva]C[Phg]T[Trp(7-aza)]EY[NMeS]H[hCys][Nva]-NH2
modifications: linker 2-10 via mXylyl(3)
B22: R3138 (peptide)
peptide: Ac-CVERFCD[Tle]YWEF-NH2
modifications: linker 1-6 via mXylyl(3)
B23: R3103 (peptide)
peptide: Ac-[Nva][hCys][Phg]T[Trp(7-aza)]EY[NMeS]HC[Nva]-NH2
modifications: linker 2-10 via mXylyl(3)
B24: R3011 (peptide)
peptide: Ac-[Nva]C[Phg]T[Trp(7-aza)]EY[NMeS]HC[Nva]P-NH2
modifications: linker 2-10 via mXylyl″
B25: R3127 (peptide)
peptide: Ac-[Nva]CYNN[Tle]E[Trp(7-aza)]ECP[Phg][Tle]-NH2
modifications: linker 2-10 via mXylyl(3)
B26: R3014 (peptide)
peptide: Ac-C[Phg]T[Trp(7-aza)]EY[NMeS]HC[Nva]P[Nva]-NH2
modifications: linker 1-9 via mXylyl″
B27: R3102 (peptide)
peptide: Ac-[Nva]C[Phg]T[Trp(7-aza)]EYPHC[Nva]-NH2
modifications: linker 2-10 via mXylyl(3)
B28: R3139 (peptide)
peptide: Ac-C[Tle]ERFCD[Tle]YWEF-NH2
modifications: linker 1-6 via mXylyl(3)
B29: R3000 (peptide)
peptide: Ac-[Nva]CYKNYH[Trp(7-aza)]EYP[Tle]Y-NH2
SMILES: CCC[C@H](NC(C)=O)C(=O)N[C@@H](CS)C(=O)N[C@@H](Cc1ccc(O)cc1)C(=O)N[C@@H](CCCCN)C(=O)N[C@@H](CC(N)=O)C(=O)N[C@@H](Cc1ccc(O)cc1)C(=O)N[C@@H](Cc1c[nH]cn1)C(=O)N[C@@H](Cc1c[nH]c2ncccc12)C(=O)N[C@@H](CCC(=O)O)C(=O)N[C@@H](Cc1ccc(O)cc1)C(=O)N1CCC[C@H]1C(=O)N[C@H](C(=O)N[C@@H](Cc1ccc(O)cc1)C(N)=O)C(C)(C)C
B30: R3146 (peptide)
peptide: Ac-C[Tle]ERFCDVYWEF-NH2
modifications: linker 1-6 via mXylyl(3)
B31: R3147 (peptide)
peptide: Ac-CVERFCDVYWEF[Pra]-NH2
modifications: linker 1-6 via mXylyl(3)
B32: R3150 (peptide)
peptide: Ac-CVARFCD[Tle]Y[Trp(7-aza)]EYP[Phg][Nva]-NH2
modifications: linker 1-6 via mXylyl(3)
B33: R3106 (peptide)
peptide: Ac-[Nva]C[Phg]T[Trp(7-aza)]EY[NMeS]H[hCys][Nva]-NH2
modifications: linker 2-10 via pXylylene
SMILES: CCC[C@H](NC(=O)[C@@H]1CCSCc2ccc(cc2)CSC[C@H](NC(=O)[C@H](CCC)NC(C)=O)C(=O)N[C@@H](c2ccccc2)C(=O)N[C@@H]([C@@H](C)O)C(=O)N[C@@H](Cc2c[nH]c3ncccc23)C(=O)N[C@@H](CCC(=O)O)C(=O)N[C@@H](Cc2ccc(O)cc2)C(=O)N(C)[C@@H](CO)C(=O)N[C@@H](Cc2c[nH]cn2)C(=O)N1)C(N)=O
B34: R3111 (peptide)
peptide: Ac-[Nva]T[Phg]C[Trp(7-aza)]EY[NMeS]AC[Nva]-NH2
modifications: linker 4-10 via mXylyl(3)
B35: R3136 (peptide)
peptide: Heptanoyl-[Nva]C[dPhg]T[Trp(7-aza)]EY[NMeS]AC[Nva]-NH2
modifications: linker 2-10 via mXylyl(3)
B36: R3140 (peptide)
peptide: Ac-CVERFCDVYWEYP-NH2
modifications: linker 1-6 via mXylyl(3)
B37: R3108 (peptide)
peptide: Ac-[Nva][hCys][Phg]T[Trp(7-aza)]EY[NMeS]H[hCys][Nva]-NH2
modifications: linker 2-10 via pXylylene
SMILES: CCC[C@H](NC(=O)[C@@H]1CCSCc2ccc(cc2)CSCC[C@H](NC(=O)[C@H](CCC)NC(C)=O)C(=O)N[C@@H](c2ccccc2)C(=O)N[C@@H]([C@@H](C)O)C(=O)N[C@@H](Cc2c[nH]c3ncccc23)C(=O)N[C@@H](CCC(=O)O)C(=O)N[C@@H](Cc2ccc(O)cc2)C(=O)N(C)[C@@H](CO)C(=O)N[C@@H](Cc2c[nH]cn2)C(=O)N1)C(N)=O
B38: R3113 (peptide)
peptide: Ac-Y[Nva]C[Phg]T[Trp(7-aza)]EY[NMeS]HC[Nva]-NH2
modifications: linker 3-11 via mXylyl(3)

Biological target: human C5 protein (human, UniProt P01031 19-673; P01031 678-1676)
Assay: cell-based or functional assay

Binder	Avg. IC50, human hemolysis assay [nM]
B1	44.6
B2	> 100000
B3	18.6
B4	> 100000
B5	> 100000
B6	> 75000
B7	> 5000
B8	344
B9	> 25000
B10	> 100000
B11	165
B12	8.5
B13	24.5
B14	> 5000
B15	148
B16	> 2000
B17	> 3000
B18	> 75000
B19	13.6

Binder	Avg. IC50, human hemolysis assay [nM]
B20	> 50000
B21	> 5000
B22	87.2
B23	> 25000
B24	112
B25	> 75000
B26	1420
B27	978
B28	97.2
B29	> 10000
B30	107
B31	138
B32	32
B33	> 5000
B34	> 5000
B35	> 50000
B36	17.9
B37	> 75000
B38	> 5000
